The values below come from the nanobody polyreactivity screen of Harvey et al. (2022).

A short description of the data set: yeast display, Sf9 membrane polyspecificity reagent, FACS + sequencing; frameworks hold sequencing errors. Put shortly:
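A nanobody's polyreactivity label depends on the gate it was sorted from. Yeast display cells were stained with 10% biotinylated, detergent-solubilized Sf9 membrane reagent for 1 hour at 4 °C, enriched on streptavidin microbeads and sorted by FACS. The low and high (top ~1%) gates were set on anti-HA fluorescence for expression and streptavidin fluorescence for reagent binding.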
Regarding “QVQLVESGGGLVQAGGSLRLSCAASGRIIRRYAMGWYRQAPGKERELVAAISRSGGSTYYADSVKGRFTISRDNAKNTVFLQMKRLKPEDTAVYYCNRRYITYNYDYWGQVTQVTVSS”, the “polyreactivity (PSR sort gate)” value is reported as “high polyreactivity”.
Regarding “QVQLVESGGGLVQAGGSLRLSCAASGRIIRVNAMGWYRQAPGKERELVAAISGRGGSTYYADSVKGRFTISRDNAKITVYLQMNSLKPEDTAVYYCAKKSYSYGYNSYDYWGQGTQVTVSS”, the “polyreactivity (PSR sort gate)” value is given as “high polyreactivity”.
Regarding “QVQLVESGGGLVQAGGSLRLSCAASGRIISPYAMGWYRQAPGKERELVAAISWRGSSTYYADSVKGRFTISRDNAKNTVYLQMNSLKPEDTAVYYCAAVYYRGIQSYDYWGQGTQVTVSS”, the “polyreactivity (PSR sort gate)” value was “low polyreactivity”.
“QVQLVESGGGLVQAGGSLRLSCAASGRIISRYAMGWYRQAPGKERELVAAISRRGGSTYYADSVKGRFTISRDNAKNTVYLQLNSLKPEDTAVYYCNADTGNRGYDYWGQGTQVTVSS”: the “polyreactivity (PSR sort gate)” value was “high polyreactivity”.
Turning to “QVQLVESGGGLVQAGGSLRLSCAASGRIISVYAMGWYRQAPGKERELVATITGGNTNYADSVKGRFTISRDNAKNTVYLQMNSLKPEDTAVYYCAKQFLPSGVYYEYDSWGQGTQVTVSS”, the “polyreactivity (PSR sort gate)” value is “low polyreactivity”.
Regarding “QVQLVESGGGLVQAGGSLRLSCAASGRIITRNAMGWYRPAPGKERELVAAISSGGSTSYADSVKGRFTISRDNAKNTVYLQLNSVKPEDTAVYYCATKWYWWYDGYYYWGQGTQVTVSS”, the “polyreactivity (PSR sort gate)” value is reported as “low polyreactivity”.
In the case of “QVQLVESGGGLVQAGGSLRLSCAASGRIITTYAMGRYRQAPGKERELVAPITSDGRTYYADSVKVRFTISRDNATHSVYLQMYSMKPEDTAVYYCNAAGRYAFPFGYNYWGQGTQVTVSS”, the “polyreactivity (PSR sort gate)” value is “high polyreactivity”.
For the sequence “QVQLVESGGGLVQAGGSLRLSCAASGRIIWSNAMGWYRQAPGKERELVAGITGSGGNTYYADSVKGRFTISRDNAKNTVYLHMNSLKPEDTAVYYCNARSGSRPSSSYRYDYWGQGTQVTVSS”, the “polyreactivity (PSR sort gate)” value is “low polyreactivity”.
On to “QVQLVESGGGLVQAGGSLRLSCAASGRIIYNAMGWYRQAPGKERELVAAITSNGCSTYYADSVKGLFTISRDTAKNTVYLQMNSLKPEDTAVYYCARDVNSVPSEVKYDYWGQGTQVNVSS”, for which the “polyreactivity (PSR sort gate)” value was “low polyreactivity”.
Take “QVQLVESGGGLVQAGGSLRLSCAASGRIIYTNAMGWYRQAPGKERELVAAINRSGGITYYADSVKGRFTISRDNAKNTVYLQMNSLKPEDTAVYYCAKDYSWASYNHDYWGQGTQVTVSS”: the “polyreactivity (PSR sort gate)” value is given as “low polyreactivity”.
Regarding “QVQLVESGGGLVQAGGSLRLSCAASGRIIYTYAMGWYRQAPGKERELVAAISWSGGSTYYADSVKGRFTISRDNAKNTVYLQMKSLKPEDTAVYFCNAAYYGYENLSKRGYWGQGTQVTVSS”, the “polyreactivity (PSR sort gate)” value was “high polyreactivity”.
In the case of “QVQLVESGGGLVQAGGSLRLSCAASGRIIYVKAMGWYRQAPGKERELVAAISSRGGTTYYADSVKGRFTISRDNAKNSVYLQMNSLKPEDTAVYYCNAGRVRHGNDYWGQGTQVTVSS”, the “polyreactivity (PSR sort gate)” value is “high polyreactivity”.
In the case of “QVQLVESGGGLVQAGGSLRLSCAASGRILARYAMGWYRQAPGKERELVAAITSRGGSTSYADSVKGRFTISRDNAKNTVYLQMNSLKPEDTAVYYCAKGERSANGGLFAGRHGYWGQGTQVTVSS”, the “polyreactivity (PSR sort gate)” value was “low polyreactivity”.
The entry for “QVQLVESGGGLVQAGGSLRLSCAASGRILASYAMGWYRQAPGKERELVAAIRYRGSTSYADSVKGRFTISRDNANNTVYLQMNSLKPEDTAVYYCNAGLEYYYWGYTWEFDYWGQGTQVTVSS” is “low polyreactivity”; for “QVQLVESGGGLVQAGGSLRLSCAASGRILAWYAMGWYRQAPGKEREFVAGITGSVGSTYYADSVKGRFTISRDKAKNTVYLQMNSLKPEDPAVYYCNKDWDRTSGPKHYYWGQGTQVTVSS” it is “low polyreactivity”; for “QVQLVESGGGLVQAGGSLRLSCAASGRILDRYAMGWYRQAPGKERELVAVITDRGGNTYYADSVKGRFTISRDNAKNTVYLQMNSLKPEDTAVYYCAVYAYWRFRTYYYWGQGTQVTVSS” it is “high polyreactivity”.
